# Experimental data: US20150031617A1, “USE OF THYMOSIN ALPHA FOR TREATMENT OF PURULENT RHINOSINUSITIS” (SCICLONE PHARMACEUTICALS, INC., priority 2012, published 2015)
# Key:
# [1] = cited from earlier work
# [2] = test system: monocytes and granulocytes of patients with purulent rhinosinusitis; test: monocyte and granulocyte polarization in vitro in patients with purulent rhinosinusitis; format: cell-based, human; conditions: 10 patients; thymalfasin, 0.1 mg/ml; FIG. 1
# Procedure: The results in 10 patients were evaluated. The monocyte and granulocyte polarizations in 10 patients were evaluated. Initially, 3 to 4 of the patients started with decreased polarization. […] (See, FIG. 1.) As a control, N-formylmethionyl-leucyl-phenylalanine (fMLP)-induced polarization of healthy donor monocytes. (See, FIG. 2.) Concentrations were TP-1, 1 mg/ml, thymalfasin, 0.1 mg/ml and fMLP, 10^−8M.
substance,measurement,setting,value
(N-acetyl)-Ser-Asp-Ala-Ala-Val-Asp-Thr-Ser-Ser-Glu-Ile-Thr-Thr-Lys-Asp-Leu-Lys-Glu-Lys-Lys-Glu-Val-Val-Glu-Glu-Ala-Glu-Asn-OH (Ac-SDAAVDTSSEITTKDLKEKKEVVEEAEN-OH) [TA1],Peak plasma levels,[1]; after injection of 3.2 mg of TA1 (about 40 μg/kg),approximately 100 ng/ml
same,TA1 circulating in serum,[1]; circulating serum level,0.1 to 1.0 ng/mL
same,half-life in the circulation,[1]; in the circulation,about 2 hours
same,monocyte and granulocyte polarization in vitro,[2],worked excellently in improving and restoring the polarization in vitro
